This passage reports Col3-induced increase in activity, SRE-luciferase assay in HEK293T cells results from article doi:10.1101/2025.08.14.670383.

Bounds are passed on as bounds.

This test deals with ADGRG1_h1h2: ADGRG1 receptor bearing the designed GAIN domain SS_h1h2, on HEK293T cells (human) (UniProt Q9Y653).
Chain of UniProt Q9Y653 (Q9Y653 26-693 V174C/S218C): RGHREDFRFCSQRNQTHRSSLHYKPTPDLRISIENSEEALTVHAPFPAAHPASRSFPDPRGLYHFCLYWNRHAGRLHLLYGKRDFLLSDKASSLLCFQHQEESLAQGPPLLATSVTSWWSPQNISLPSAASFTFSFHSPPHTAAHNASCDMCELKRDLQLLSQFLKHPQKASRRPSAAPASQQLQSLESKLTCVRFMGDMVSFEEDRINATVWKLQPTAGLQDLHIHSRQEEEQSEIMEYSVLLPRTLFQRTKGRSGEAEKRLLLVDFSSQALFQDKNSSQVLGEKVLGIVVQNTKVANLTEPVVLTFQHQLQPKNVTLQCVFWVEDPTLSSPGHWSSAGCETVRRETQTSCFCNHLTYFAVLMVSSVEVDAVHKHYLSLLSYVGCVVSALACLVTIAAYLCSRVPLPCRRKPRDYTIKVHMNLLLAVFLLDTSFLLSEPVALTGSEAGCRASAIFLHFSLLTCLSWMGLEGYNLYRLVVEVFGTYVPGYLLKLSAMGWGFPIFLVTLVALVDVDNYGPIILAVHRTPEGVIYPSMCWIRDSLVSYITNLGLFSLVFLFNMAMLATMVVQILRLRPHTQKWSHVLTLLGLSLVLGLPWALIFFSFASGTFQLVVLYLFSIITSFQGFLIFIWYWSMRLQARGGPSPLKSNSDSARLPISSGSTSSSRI

Consider “native human collagen III (from UniProt P02461 154-1221) (ligand)”, for which the Col3-induced increase in activity, SRE-luciferase assay in HEK293T cells was more than 2 fold.
